Test results reported in patent US20230220053A1 (published 2023).
Residue numbers refer to the chain shown, from its start.

B1: 2020EP61-A08 scFv (scFv)
scFv: QVQLVQSGAEVKKPGASVKVSCKASGYTFTSYYMHWVRQAPGQGLEWMGIINPSGGSTSYAQKFQGRVTMTRDTSTSTVYMELSSLRSEDTAVYYCARESGNYYYDSSGYTFDYWGQGTLVTVSSGGGGSGGGGSGGGGSSYVLTQPLSVSVALGQTARITCGGNNIGSKNVHWYQQKPGQAPVLVIYYDSDRPSGIPERFSGSNSGNTATLTISGTQAMDEADYYCQAWDSSTVVFGGGTKLTVL
B2: 2020EP53-D06 scFv (scFv)
scFv: QVQLVQSGGGVVQPGRSLRLSCAASGFTFSSYAMHWVRQAPGKGLEWVAVISYDGSNKYYADSVKGRFTISRDNSKNTLYLQMNSLRAEDTAVYYCARDGEDGYNYISPFDYWGQGTLVTVSSGGGGSGGGGSGGGGSSYELTQPPSVSVAPGETARITCRGNDIGSKSVHWYQQKPGQAPVLVLYYDSDRPSGIPERFSGSNSGNTATLTISSVEAGDEADYYCQVWDIDVVFGGGTKLTVL
B3: 2020EP64-G10 scFv (scFv)
scFv: B2 scFv with G137R, Q226H
B4: 2020EP64-C08 scFv (scFv)
scFv: QMQLVQSGAEVKKPGSSVKVSCKASGGTFSSYAISWVRQAPRQGLEWMGRIIPILGIANYAQKFQGRVTITADKSTSTAYMELSSLRSEDTAVYYCASSYGGNQLWGQGTLVTVSSGGGGSGGGGSGGGGSQSVLTQPPSASGTPGQRVTISCSGSDSNIGTNTVNWYQQVPGTAPKVLIYSTHQRPSGVPDRFSASKSGTSASLAISGLQSEDEADYYCSSWDVSLNAWVFGGGTKVTVL
B5: 2020EP54-H01 scFv (scFv)
scFv: QVQLVESGGGVVQPGRSLRLSCAASGFTFSSYGMHWVRQAPGKGLEWVAVISYDGSNKYYADSVKGRFTISRDNSKNTLYLQMNSLRAEDTAVYYCAKGRGWYLDYWGQGTLVTVSSGGGGSGGGGSGGGGSNFMLTQPPSVSVSPGQTASITCSGDKLGDKYACWYQQKPGQSPVLVMYEDYKRPSGIPARFSGSNSGNTATLTISRVEGGDEGDYYCQVWDSRGPEVIFGGGTKLTVL
notes: also called 2020EP054-H01
B6: 2020EP75-E02 scFv (scFv)
scFv: QMQLVQSGAEVKKPGSSVKVSCKASGGTFSSYAISWVRQAPGQGLEWMGGIIPIFGTANYAQKFQGRVTITADKSTSTAYMELSSLRSEDTAVYYCARPRDYRAQYYFDYWGQGTLVTVSSGGGGSGGGGSGGGGSDIVMTQSPSSLSASVGDRVTITCRAGQDIDTSVNWYQLKPGKAPRLLIYASSSLQTGVPSRFSGGGSGAEFTLTISSLQPEDFATYFCQQTFSTSVTFGGGTKVEIK
B7: 2020EP60-A12 scFv (scFv)
scFv: EVQLVESGGGVVQPGRSLRLSCAASGFTFSSYGMHWVRQAPGKGLEWVAVISYDGSNKYYADSVKGRFTISRDNSKNTLYLQMNSLRAEDTAVYYCAKGLEYYFDYWGQGTLVTVSSGGGGSGGGGSGGGGSSYELTQPPSLSVSPGQTARITCSGDALPEQYAYWYQQKPGQAPVLVIYKDSERPSGIPERFSGSSSGTTVTLTISGVQAEDEADYYCQAWDSSTVVFGGGTKLTVL
B8: 2020EP66-A07 scFv (scFv)
scFv: EVQLVQSGAEVKKPGSSVKVSCKASGGTFSSYAISWVRQAPGQGLEWMGGIIPIFGTANYAQKFQGRVTITADESTSTAYMELSSLRSEDTAVYYCASGGDGYNYDYYYYGMDVWGQGTTVTVSSGGGGSGGGGSGGGGSSYELTQPPSVSVSPGQTATITCSGEKLGDKYSFWYQQKPGQSPVMVMYQDDQRPSGTPERFSGSNSGNTATLTISGTRATDEADYYCQAWDNSASVFGSGTKLTVL
B9: 2020EP60-F05 scFv (scFv)
scFv: QVQLVESGGGVVQPGGSLRLSCAASGFTFSSYGMHWVRQAPGKGLEWVAVISYDGSNKYYADSVKGRFTISRDNSKNTLYLQMNSLRAEDTAVYYCAKARVALGYFDWLLYDGMDVWGQGTTVTVSSGGGGSGGGGSGGGGSSSELTQPPSVSVSPGQTASITCSGDKLGNKYVFWYQQKPGQSPILVIYQDNRRPSGIPERFSGSNSGNTATLTISGDPAMDEADYYCQAWDSSTVVFGGGTKLTVL
B10: 2020EP71-E04 scFv (scFv)
scFv: QVQLVQSGGGVVQPGRSLRLSCAASGFTFSSYGMHWVRQAPGKGLEWVAVISYDGSNKYYADSVKGRFTISRDNSKNTLYLQMNSLRAEDTAVYYCAKDRAYYYGYYYYYYGMDVWGQGTTVTVSSGGGGSGGGGSGGGGSQSVLTQPPSVSGAPGQRVTISCTGSSSNIGAGYDVHWYQQLPGTAPKLLIYGNSNRPSGVPDRFSGSKSGTSASLAITGLQAEDEADYYCATWDDSLSGPVFGGGTKVTVL
B11: 2020EP54-B02 scFv (scFv)
scFv: QVQLVQSGAEVKKPGASVKVSCKASGYTFIGYYMHWMRQAPGQGLEWMGRINPNSGGTNYAEKFQGRVTMTRDTSISTAYMELSRLTFNDTAVYYCARWDSSSWKFDSWGQGTLVTVSSGGGGSGGGGSGGGGSEIVLTQSPSSLSASVGDRVTITCQASQDISNYLNWYQQKPGKAPKLLIYDASNLETGVPSRFSGSGSGTDFTFTISSLQPEDIATYYCQQYDNLPITFGQGTRLEIK
B12: 2020EP66-D03 scFv (scFv)
scFv: QVQLQQWGAGLLKPSETLSLTCAVYGGSFSGYYWSWIRQPPGKGLEWIGEINHSGSTNYNPSLKSRVTISVDTSKNQFSLKLSSVTAADTAVYYCARGPPLWNYGKGFDYWGQGTLVTVSSGGGGSGKGGSGGGGSQPVLTQPPSASGTPGQRVTISCSGSSSNIGSNYVYWYQQLPRTAPKLLIYRNNQRPSGVPDRFSGSKSGTSASLAISGLRSEDEADYYCAAWDDSLSAWVFGGGTKLTVL

target: T1, RBD of SARS-CoV-2 spike protein S1 (recombinant, construct not stated) (SARS-CoV-2, UniProt P0DTC2 328-533); assay: ELISA, RBD coated, scFv titrated, anti-Flag HRP
T1 construct: also called SARS-COV-2, RBD; RBD-AF647

Binder	EC50 [nM]	binding result
B1	2.52	–
B2	0.818	–
B3	0.663	–
B4	8.73	–
B5	5.77	–
B6	–	no binding (tested: 200 nM (highest concentration tested))
B7	4.99	–
B8	–	no binding (tested: 200 nM (highest concentration tested))
B9	0.649	–
B10	–	no binding (tested: 200 nM (highest concentration tested))
B11	75.9	–
B12	–	no binding (tested: 200 nM (highest concentration tested))

target: T2, S1 protein of SARS-CoV-2 (recombinant, construct not stated) (SARS-CoV-2, UniProt P0DTC2 16-685); assay: not given

Binder	IC50 [nM]
B5	38.4

target: T2, S1 protein of SARS-CoV-2 (recombinant, …); assay: ELISA, S1 coated, scFv titrated, anti-Flag HRP

Binder	EC50 [nM]
B1	5.74
B2	0.511
B3	0.936
B4	40.2
B5	20.4
B6	0.225
B7	27.3
B8	0.525
B9	1.38
B10	5.03
B12	0.514

target: S1-Fc (SARS-CoV-2 S1 protein, Fc fusion) (SARS-CoV-2, UniProt P0DTC2 16-685); assay: SPR (Biacore T200), S1 captured on anti-human Fc chip, scFv injected

Binder	Kd [nM]	koff [s⁻¹]	kon [M⁻¹ s⁻¹]
B2	7.84	0.00204	260000
B3	11.2	0.00242	215000
B4	73.6	0.00693	94100
B5	52.5	0.0052	99000
B6	4.46	0.00174	390000
B8	2.3	0.00142	614000
B10	37.6	0.0019	50600
B11	91.8	0.00366	39900
B12	19.5	0.00256	131000

target: T3, SARS-CoV-2-RBD (328-533)-Fc (SARS-CoV-2); assay: SPR (Biacore T200), RBD captured on anti-human Fc chip, scFv injected
T3 construct: also called RBD-Fc

Binder	Kd [nM]	koff [s⁻¹]	kon [M⁻¹ s⁻¹]
B1	69.4	0.00191	27500
B2	4.4	0.0011	251000
B5	31.4	0.00265	84300
B9	6.14	0.00302	491000
B11	69.5	0.00242	34900
